Assay results from article PMC6954417.

Target: DSS1 (human)
Experiment: MST; labelled DSS1 50 nM constant, RAD52 1 nM to 36 uM, 30 mM Tris-acetate pH 7.5, 1 mM DTT, 25°C, quadratic binding equation

B1: RAD52 (natural protein)
chain: MSGTEEAILGGRDSHPAAGGGSVLCFGQCQYTAEEYQAIQKALRQRLGPEYISSRMAGGGQKVCYIEGHRVINLANEMFGYNGWAHSITQQNVDFVDLNNGKFYVGVCAFVRVQLKDGSYHEDVGYGVSEGLKSKALSLEKARKEAVTDGLKRALRSFGNALGNCILDKDYLRSLNKLPRQLPLEVDLTKAKRQDLEPSVEEARYNSCRPNMALGHPQLQQVTSPSRPSHAVIPADQDCSSRSLSSSAVESEATHQRKLRQKQLQQQFRERMEKQQVRVSTPSAEKSEAAPPAPPVTHSTPVTVSEPLLEKDFLAGVTQELIKTLEDNSEKWAVTPDAGDGVVKPSSRADPAQTSDTLALNNQMVTQNRTPHSVCHQKPQAKSGSWDLQTYSADQRTTGNWESHRKSQDMKKRKYDPS
**Q.** With B1 as the binder, how does the Kd read?
**A.** The Kd was 14 nM.
